Experimental data published in the nanobody polyreactivity screen of Harvey et al. (2022).

Experiment: yeast display, Sf9 membrane polyspecificity reagent, FACS + sequencing; frameworks hold sequencing errors
Summary of the method: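 Galactose-induced (36–48 hours) yeast carrying a synthetic nanobody display library were exposed to 10% biotinylated, detergent-solubilized Sf9 membrane reagent at 4 °C for 1 hour. FACS followed streptavidin microbead enrichment, using low and high (top ~1%) gates for expression (anti-HA) and reagent binding (streptavidin). Colony PCR, MiSeq 2 × 250 sequencing and CDR-length filtering followed. Labels for polyreactivity reflect the gate of origin.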

Row | Sequence | polyreactivity (PSR sort gate)
1 | QVQIVESGGVLDQAGGSLRLSCAATGSTFAKNAMGWYRQAPGKERELVAAITSGGSTYYADSVKGRFTISRDNAKNTVYLQMYSLKPEDTAVYYCAVDYPWDIFIYWVQNYDHWGHGTQVTVSS | high polyreactivity
2 | QVQIVESGGVLVQAGGSLRLSCAASGFNYTNYAMGWYIQSPGKERELVAAITYSGGSKYYADSVKGRFTISRDIAKNTVYLQMNSLKPEDTAVFFCNKYPSFYGAGYYWGQGTQVTVSS | high polyreactivity
3 | QVQIVESGGVLVQAGGSLRLSCAASGITLRVYVMGWYRQAPGKERELVAAITSRGDRTYYADSVKGRSTISRDNAKNTVYLQMNSLKPEDTAVYDCAARYYSYPPGLSQTRLTYYYWGQGTQVTVSS | high polyreactivity
4 | QVQIVESGVGLVQAGGSLRLSCAASGRIVSSKVMGLYRQAAGKERELVAAITSGGSTYYADSVKGRFTISRDNAKNTVYLQMNSLKPEDTAVYYCAASYWVLRYRYDYWGQGTQVTVSS | high polyreactivity
5 | QVQIVESRGGLVQAGGSLRLSCAASGFIIYKYALGWYRQAPRKERELVAAISSSGGNTYYADSVKGRFTNSRDNAKNTVFLQMMSLKPEDTAVYYCAADYYVSKSRYYSYGYWGQGTQVTVSS | high polyreactivity
6 | QVQIVESRGGLVQAGVSLRLSCAASGRIFAKNVMGWYRQAPGKDRELVAAISRSGGSTYYADSVKGRFTISRDNAKNTVYLQMNSLKPEDTAVYYCAATPAYGRRWSRYGYWGQGTQVNVSS | high polyreactivity
7 | QVQIVESVGGLVQAGGSLRLSCAASGSTVERYAMGWYRKAPGKERELVARITWSGGSTYYADSVKGRFTISLDNAKNTVYVQMNSLKPEDTAVYYCNRDTRYPGYWRVFAKNNYWGQGTQVTVSS | high polyreactivity
8 | QVQLAESGGGLVQAGGSLRLSCAASGSTSAKNVMGWYRQPPGTERELVAAISRSGGRTYYADSVKGRFTISRDNAKNTVYLQMNSLKPVDTAVYYCYTRYVKGFYWGQGTLVTVSS | high polyreactivity
9 | QVQLDESGGGLVQAGGSLRLSCADSGRIFDRNALGWYRQAPGKESELVAAISSRGTSTYYADSVKGRFTISRDNAKNTVYLQMNSLKPEDTAVYYCAARPRYASDEFGYWGQGTQVTVSS | low polyreactivity
10 | QVQLEDSGGGLVQAGGSLPLSCAASGLTFYVNARGWNRQAPGKERELVAGIDSGGSTYYAASVKGRFTISRDNAKNTVYLQMNSLKPEDTAVYYCAADEGYVWPYYGWGFGKYDYWGEGTQVTVSS | low polyreactivity
11 | QVQLEDSGGGLVQAGGSLRLSCAASGFIFGLNAMGWNRQAPGKERELVAAIRSASSTNYADSVKGRFTISRDNAKNTVYLQMNSLKPEDTAVYYCAAEYVTYQHGFWGYDYWGQGTQVTVSS | low polyreactivity
12 | QVQLEDSGGGLVQAGGSLRLSCAASGLNLYRYAMGVYRQEPGKEREFVASISWSGGSTYYADSVKGRFTISRDNAKNTVYLQMNSLKPEDTAVYYCATDSDTSQLGYDYWGQGTQVTVAS | low polyreactivity
13 | QVQLEDSGGGLVQAGGSLRLSCAASGRTFHRNAMGWYRQAPGKERELVAAITGSGGSTYYADSVKGRFTISRDNAKNTVYLQMNSLKPEDTAVYYCATYSYPERTGGQRTHYYWGQGTQVTVSS | high polyreactivity
14 | QVQLEDSGGGLVQAGGSLRLSCAASGSTFNQYAMGWYRQATGKERELVAAITTSGARTYYADSVKGRFTISRDNAKNTVYLQMNSLKPEDTAVYYCNAGYFSYRYRYGYDYWGLGTQVTVSS | high polyreactivity
15 | QVQLEDSGGGLVQAGGSLRLSCAASGSTFRYYTMGWYRQAPGKEREFVASIRTSGGSTYADSVKGRFTISRDNAKNTVYLQMNSLKPEDTAVYYCAARGGYRYTRYDYWGQGTQVTVSS | high polyreactivity
16 | QVQLEDSGGGLVQAGGSLRLSCAASGSTWVYAMGWYRQAPGTERELVASITVSGGSTYYADSVKGRFTISRDNAKNTVYLQMNSLKPEDTAVYYCAAYDSYRKFKYWRQGTQVTVSS | high polyreactivity
17 | QVQLEDSGGGLVQAGGTLRLSCAASGIIFAYNYMGWNRHATRKERELVATISSAGNTNYADSVKGRFTISRDNAKNTVYLQMNSLKPEETAVYYCAAEFFIVVTDEYDYWGQGTQVTVSS | low polyreactivity
18 | QVQLEDSGRGLFQAGGSLRLSCAASGSNFAHYAMGWYIQAQGKERELVARFSWSGGSTYYADSVKGRFTISRDNAKNTVYLQMNSLKPEDTAVYYCAADHLYWGLEYEPWGQGTQVTVSS | low polyreactivity
19 | QVQLEESAGGLVQAGGSLRLSCAASGSIFFWNDLGWYRQAPGKERELVAAISWSGGSTSYADSVKGRFTISRDNAKNTVYLQMNSLKPEDTAVYYCAADFYYRTLYGYIGMDYWGQGTQVTVSS | low polyreactivity
20 | QVQLEESAGGLVQAGGSLSLICAASGTIVSYAMGWYRQAPGKQRELVAAISRSGGSTYYADSVKGRFTIARDNEKNTVYLQMNSLKPEDTAVYYCAARWRYLTLYAGFNYWGQGTQVTVSS | high polyreactivity

Row | Sequence | polyreactivity (PSR sort gate)
21 | QVQLEESGAGLVQAGGSLRLSCAPSGIIYDGNAMGWYRKAPGKERELLASITSDSSTNYADSVKGRFTISRDNAKYTVYLHMNSLKPQDTAVYYCAADHWIAPRRDYWGQGTQVTVSS | low polyreactivity
22 | QVQLEESGAGVVQAGGSLRLSCAASGRTFQYNAMGWYRPAPGTERELVAAISSSGGSTYYADSVKGRFTISRDNAKNTVYFQMNSLNPEDTAVYYCNAYSQSWNFYGVGDYWGQGTQVTVSS | low polyreactivity
23 | QVQLEESGGALVQAGGSLRLSCAASGFIFTLYAMGWYRQAPGKEREFVAAISWSDGSTTYADSVKGRFTISRDNAKNTVYLQMNSLNPEDTAVYYCAAVTSSYIRGLVYHFYYWGQGTQVTVSS | low polyreactivity
24 | QVQLEESGGALVQAGGSLRLSCAASGNTFGPKAMGWYRQAPGKERELVASINIGGRTNYADSVKGRFTISRDNAKNSVYLQLKSLKPEDTAVYYCNAGSGVQVVWYNAYREYEYWGQGTQVTVSS | low polyreactivity
25 | QVQLEESGGCLDQAAGSLRLTCADSGFIFLPNAMGWYRQAPGKERELVADITYDGGTTYYADSVKGRFTISRDNAKNTVYLQKNSLKPEDTAVYYCNAETYEFHRSRGDYDYWGQGTQVTVSS | low polyreactivity
26 | QVQLEESGGGIVQAGGSLRLSCAASGRTFGANAMGWYRQAPGKERELVAAISSSDDSTYYADSVKGRFTISRDNAKNTVYLQMNSLKPEDTAVYYCAAEDVYPQLDYWGQGTQVTVSS | low polyreactivity
27 | QVQLEESGGGLDQAGGILRLSFAASGSTIGGYAMGWYSQATGNERELVAAITRSGGRTYYADSVKGRFTISRDNGKNTVYLQMNSLKPEDTAVYYCATLVTNGRYDSWGQGTQVTVSS | high polyreactivity
28 | QVQLEESGGGLDQAGGSLRLSCAASARTFDGYAMGWYRQAPGKERELVAAISSGDSTYYADSVKGRFTISRDKAKNTVYLQMNSLKPEDTAVYYCAASFYYSSYGYWGQGTQVTVSS | low polyreactivity
29 | QVQLEESGGGLDQAGGSLRLTCAASGSTFLFYAMGWYRQAPGKESELVAAIRWSGGSTYADSVKGRFTISRDNAKYTVYLPMNSLKPEDTAVYYCATTYRPTFRRHYKYWGQGTQVTVSS | low polyreactivity
30 | QVQLEESGGGLFQAGGSLRLSCAASGSTFYAYAMGWYRQAPGKERELVAAISSDGTNYADSVKGRFTISRDNAKNTVYLQMNSLKPEDTAVYYCAADMLLYSSQDNDYWGQGTLVTVSS | low polyreactivity
31 | QVQLEESGGGLFQAGGSLRLSCAASVSSYRSYARGWYRTATGKERELVAAISVSGGSTYYADSVKGRFTISRDNAKNTVFLQMNSLKPEDTAVYYCAASYVPSYAPGRYYYWGQGTQVTVSS | high polyreactivity
32 | QVQLEESGGGLLQAGGSLRLSCAASGRTLGGYTMGWYRPAPGKERELVSAITTGGSTNYADSVKGRFTISRDNAKNTVYLQMNSLKPEDTAVYFCATELVFDKRYWYDYWGQGSQVTVSS | low polyreactivity
33 | QVQLEESGGGLMQAGGNLRLSCAASGYISTHYDMDWYRQAPGRERELVARIDDGAITNYADSVKGRFTISRDNATNTVYLQMNSLKPEDTAVYYCAVYSGDDYYHDYWGQGTQVTVSS | low polyreactivity
34 | QVQLEESGGGLVQAGASLRLICAASGFTFARNAMGWYRQAPGKERELVASITSGGSTNYADSVKGRFTISRDNAKNTVYLQMNSLKPEETAVYYCAAYQWIAPRRDYWGQGTQVTVSS | low polyreactivity
35 | QVQLEESGGGLVQAGASLRLSCAASGNIFPRNAMGWYRQAPGKERELVAAISASGDNTYYADSVKGRFTISRDNAKNTVYLQMNSLKPEDTEVYYCAAATFYESIQPYESVAYDYWGQGTQVTVSS | low polyreactivity
36 | QVQLEESGGGLVQAGGILRLSCAASGFTLVYYAMGSYRQAPGKERELVATISGNGGRTYYADSVKGRFTISRDNAKNTDNLQMNSLKPEDTAVYYCAALLYIGSVGYDYWGQGTQVTVSS | low polyreactivity
37 | QVQLEESGGGLVQAGGRHRLSCAASGNIFTSYTMGWYRQAPGKERELVAAISGGGGSTYYADSVKGRFTISRDNAKNTVYLQMNSLKPEDTAVYYCNAGRWWRRGYGYWGQGTQVTVSS | high polyreactivity
38 | QVQLEESGGGLVQAGGRLRLSCAASGITFGSYAMGWYRQAPGKERELVAAITRSDITNYADSVKGRFTISRDNAKNSVYLQMNRLNREDTAVYYCNKTPDRHRRYFGYGYWGHGTQVTVSS | low polyreactivity
39 | QVQLEESGGGLVQAGGRLRLSCAASGSTFDPNTMGWYRQAPGKERELVATITSVDSTNYADSVKGRFTISRDNAKNTVYLQMNSLKPEDTAVYYCNAAYGGVFFYAYDYWGQGTQVTVSS | low polyreactivity
40 | QVQLEESGGGLVQAGGRLRLSCDASGITLLLKAMGWYRQAPGKERELFAAISEGGGSTYYADSVKGRFTISRDNAKNTVYLQMNSLTPEDTAVYYCAADEYTPDYGQGYDYWGQGTQVTVSS | low polyreactivity
